According to patent publication US20110009342A1, “USES OF PDCD5 POLYPEPTIDE FOR TUMOR CHEMOTHERAPY AND ORGAN PROTECTION” (priority 2008, published 2011):

What was measured:
[1] = system: K562 cells; assay: FITC/Annexin-V apoptosis by flow cytometry, IDR; assay type: cell-based
Description: Methods: Cell staining with FITC/Annexin-V and cell apoptosis in vitro detection by flow cytometry: K562 cells (ATCC) were maintained in RPMI 1640 (Life Technologies, USA) supplemented with 10% FBS (Hyclone, USA), and were plated in 24-well culture dishes to a density of 2×10^5 cells/mL. rhPDCD5 protein was added with a final concentration of 7.5 μg/mL, 15 μg/mL and 30 μg/mL, respectively, in each well. Chemotherapeutic drug IDR was then added with a final concentration of 56 ng/mL and RPMI 1640 with 10% FBS was added to make the system to 1 mL. After 24 hours of co-culture, the cells were stained with FITC/Annexin-V (Baosai company) and apoptosis was detected by flow cytometry.

[2] = system: Raji cells; assay: colony-forming ability (CFA) assay, ADM; assay type: cell-based
Description: Analysis for colony forming ability (CFA): U937 cells (ATCC), in the logarithmic phase, were maintained in RPMI 1640 medium supplemented with 20% FBS and 0.4% methyl cellulose (Sigma) by the semi-solid colony culture method and were adjusted to a density of 5×10^3 cells/mL. The cells were divided into control groups and test groups, and each group was assayed in triple wells. U937 cells in the control groups were treated with DNR alone, with the final concentrations of 0 ng/mL and 0.5 ng/mL. U937 cells in the test group were treated with DNR of various concentrations combined with PDCD5 of various concentrations, while the final concentrations of PDCD5 were 0 μg/mL, 0.625 μg/mL, 1.25 μg/mL, and 2.5 μg/mL, respectively. After incubation for 14 days in a 37° C., 5% CO2 and saturatedly humidified incubator, a colony with more than 30 cells was counted by an inverted microscope in order to analyze colony forming ability of each group. […]
Methods: Colony-forming ability (CFA) assay: Raji cells of logarithmic growth phase were cultured, and the method was the same as that in Example 8. […] The numbers of colonies (containing≧30 cells) were counted by inverted microscope to observe the CFA, which is indicated by the ratio of average number of colony formation in each of the test groups versus that of the untreated control group.

[3] = system: HL60 cells; assay: colony-forming ability (CFA) assay, As2O3; assay type: cell-based
Description: Analysis for colony forming ability (CFA): U937 cells (ATCC), in the logarithmic phase, were maintained in RPMI 1640 medium supplemented with 20% FBS and 0.4% methyl cellulose (Sigma) by the semi-solid colony culture method and were adjusted to a density of 5×10^3 cells/mL. The cells were divided into control groups and test groups, and each group was assayed in triple wells. U937 cells in the control groups were treated with DNR alone, with the final concentrations of 0 ng/mL and 0.5 ng/mL. U937 cells in the test group were treated with DNR of various concentrations combined with PDCD5 of various concentrations, while the final concentrations of PDCD5 were 0 μg/mL, 0.625 μg/mL, 1.25 μg/mL, and 2.5 μg/mL, respectively. After incubation for 14 days in a 37° C., 5% CO2 and saturatedly humidified incubator, a colony with more than 30 cells was counted by an inverted microscope in order to analyze colony forming ability of each group. The colony forming ability was shown as the ratio of average number of colony in each group versus that of the untreated control group in which the final concentrations of DNR and PDCD5 were 0 μg/mL.
Colony-forming ability (CFA) assay: HL60 cells of logarithmic growth phase were cultured by a method identical to that in Example 8. The cells were divided into control and test groups (each with 3 wells): In the control groups, the HL60 cells were treated only with arsenic trioxide and the final concentration of which were 0 μg/mL and 0.25 μg/mL, respectively; in the test groups, the HL60 cells were treated with different concentrations of As2O3, which was combined with different concentrations of PDCD5, the final concentrations of PDCD5 were 0 μg/mL, 5 μg/mL, 10 μg/mL and 20 μg/mL, respectively. Cultures were incubated in a 37° C., 5% CO2 and saturatedly humidified incubator for 14 days. The numbers of colonies (containing≧30 cells) were counted on day 14 by inverted microscope. The colony-forming ability was observed as the ratio of the number of average colony formation in the test groups versus that in the untreated control group. […]

[4] = system: Jurkat cells; assay: FITC/Annexin-V apoptosis by flow cytometry, DNR; assay type: cell-based
Description: Methods: The density of Jurkat cells were adjusted by RPMI 1640 medium (Life Technologies, USA) supplemented with 10% Fetal Bovine Serum (FBS, Hyclone, USA). […] Subsequently, DNR (Pharmacia Italia S.P.A) was added with its final concentration of 0.05 μg/mL, and RPMI 1640 medium supplemented with 10% FBS was added to ensure the system to be 1 mL. After 24h incubation, the sample was stained with FITC/Annexin-V (Beijing Biosea Biotechnology CO., LTD) and detected for apoptosis by flow cytometry.

[5] = system: 7721 liver cancer cells; conditions: Li et al. 2000; cited from earlier work

B1: rhPDCD5: recombinant human programmed cell death 5 protein (SEQ ID NO:1) expressed in E. coli and purified (protein, listed as Homo sapiens)
chain: MADEELEALRRQRLAELQAKHGDPGDAAQQEAKHREAEMRNSILAQVLDQSARARLSNLALVKPEKTKAVENYLIQMARYGQLSEKVSEQGLIEILKKVSQQTEKTTTVKFNRRKVMDSDEDDDY
- promotion of apoptosis induced by IDR [1]: could significantly promote apoptosis
- enhancement of inhibition of CFA by ADM [2]: can significantly enhance the inhibition of CFA by ADM
- enhancement of CFA inhibition by As2O3 [3]: can significantly enhance the CFA inhibition by As2O3
- effect on the CFA of HL60 ([3]; rhPDCD5 alone): no significant affect
- enhancement of DNR-induced apoptosis [4]: can significantly enhance DNR-induced apoptosis
- effect on apoptosis induced by hydroxy camptothecin (HCPT) [5]: could accelerate apoptosis of 7721 liver cancer cells
